Test results published in publication PMC2965252.

Molecular target: SF2/ASF (ΔRS domain) (UniProt Q07955 1-196)
Test: EMSA

SF2/ASF (ΔRS domain), sequence (Q07955 1-196, stated change not applied): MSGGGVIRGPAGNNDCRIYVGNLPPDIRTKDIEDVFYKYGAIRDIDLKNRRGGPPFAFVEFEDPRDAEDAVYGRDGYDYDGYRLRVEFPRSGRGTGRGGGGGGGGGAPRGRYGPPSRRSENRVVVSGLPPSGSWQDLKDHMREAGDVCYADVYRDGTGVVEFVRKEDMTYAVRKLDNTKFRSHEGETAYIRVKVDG

GUGAUCAGGAUGCCCUUCUC (ssRNA) [CD200 exon 2 RNA with wild-type ESE]
binding result: binds
